B1: recombinant Nitric oxide synthase interacting protein (NOSIP) (other)
chain: HMTRHGKNCTAGAVYTYHEKKKDTAASGYGTQNIRLSRDAVKDFDCCCLSLQPCHDPVVTPDGYLYEREAILEYILHQKKEIARQMKAYEKQRGTRREEQKELQRAASQDHVRGFLEKESAIVSRPLNPFTAKALSGTSPDDVQPGPSVGPPSKDKDKVLPSFWIPSLTPEAKATKLEKPSRTVTCPMSGKPLRMSDLTPVHFTPLDSSVDRVGLITRSERYVCAVTRDSLSNATPCAVLRPSGAVVTLECVEKLIRKDMVDPVTGDKLTDRDIIVLQRGGTGFAGSGVKLQAEKSRPVMQALE
notes: It was synthesized by GenScript, cloned in pET22b, expressed in E. coli BL21 (DE3) and purified on Ni-NTA and by gel filtration; A His tag is implied but never described; also called rNOSIP; recombinant NOSIP
B2: iNOS Peptide-2 (18 mer iNOS peptide) (peptide)
peptide: NQYYGSFKEAKIEEHLAR
notes: 18-residue iNOS-derived peptide, synthesized commercially by China peptides; also called PP2; PP-2

Legend:
[1] = molecular target: T1, recombinant human iNOS oxygenase domain (human, UniProt P35228 82-505); test: SPR, iNOS immobilised; KD ratio against the row rNOSIP + iNOS peptide2 (= 1)
T1 construct: It was cloned in pET22b, expressed in E. coli BL21 (DE3) and purified on Ni-NTA and by gel filtration; A His tag is implied but never described; In SPR it was immobilised on a GLC chip by amine coupling; also called riNOS; r iNOS
Procedure: (§1) Four different iNOS peptides were synthesized commercially by China peptides and iNOS peptides were used for molecular interaction studies with immobilized recombinant iNOS purified protein. The iNOS peptides mediated inhibition of rNOSIP and riNOS protein association in Bio-Rad XPR 36 surface plasmon resonance biosensor instrument. […] 250 nM of iNOS peptides was used for inhibition assay with immobilized ligand(recombinant iNOS) in SPR analysis. Similar condition and concentration of small molecules were used for inhibition of recombinant protein association with immobilized ligand. […] The molecular interaction was carried out at 20° C. and kinetic parameters were determined, after fitting the association and dissociation curves to a 1:1 (Langmuir)-binding model. […] The response curves were also recorded on control surfaces. Results were calculated after subtraction of the control values using the ProteOn Manager software.
(§2) The five small molecules bind with NOSIP and inhibit the association of recombinant NOSIP and recombinant iNOS. […] The molecular interaction was carried out at 20° C. and kinetic parameters were determined, after fitting the association and dissociation curves to a 1:1 (Langmuir)-binding model. […] The response curves were also recorded on control surfaces. Results were calculated after subtraction of the control values using the ProteOn Manager software. […]

[2] = molecular target: T1, recombinant human iNOS oxygenase domain; test: SPR, iNOS immobilised, rNOSIP pre-incubated 30 min on ice with small molecule CC11 (inhibitor), 20 C, 1:1 Langmuir fit
Procedure: as §1, §2

[3] = molecular target: T1, recombinant human iNOS oxygenase domain; test: SPR, iNOS immobilised, rNOSIP with small molecule CC6; KD ratio against the row rNOSIP + iNOS peptide2
Procedure: as §1, §2

[4] = molecular target: T1, recombinant human iNOS oxygenase domain; test: SPR, iNOS immobilised, rNOSIP pre-incubated 30 min on ice with small molecule CC6 (inhibitor), 20 C, 1:1 Langmuir fit
Procedure: as §1, §2

[5] = molecular target: T1, recombinant human iNOS oxygenase domain; test: SPR (Bio-Rad ProteOn XPR36), iNOS immobilised on GLC chip by amine coupling, NOSIP as analyte, 20 C, 1:1 Langmuir fit
Procedure: (§3) Four different iNOS peptides were synthesized commercially by China peptides and iNOS peptides were used for molecular interaction studies with immobilized recombinant iNOS purified protein. The iNOS peptides mediated inhibition of rNOSIP and riNOS protein association in Bio-Rad XPR 36 surface plasmon resonance biosensor instrument. […] 250 nM of iNOS peptides was used for inhibition assay with immobilized ligand(recombinant iNOS) in SPR analysis. Similar condition and concentration of small molecules were used for inhibition of recombinant protein association with immobilized ligand. […] The rNOSIP protein was incubated with iNOS derived peptide/small molecules for 30 minutes in ice for inhibition assay before the SPR application in our study. The molecular interaction was carried out at 20° C. and kinetic parameters were determined, after fitting the association and dissociation curves to a 1:1 (Langmuir)-binding model. An activated channel without immobilized ligand was used to evaluate nonspecific binding. The response curves were also recorded on control surfaces. Results were calculated after subtraction of the control values using the ProteOn Manager software.
Manager software was used to fit the data with the Langmuir model describing a 1:1 binding stoichiometry. Ka is the association rate constant, Kd is the dissociation rate constant, and KD is the equilibrium dissociation constant, defined by the Kd/Ka ratio for the analytes—ligand binding.

[6] = molecular target: T1, recombinant human iNOS oxygenase domain; test: SPR, iNOS immobilised, rNOSIP with small molecule CC11; KD ratio against the row rNOSIP + iNOS peptide2
Procedure: as §1, §2

[7] = molecular target: T1, recombinant human iNOS oxygenase domain; test: SPR, iNOS immobilised, rNOSIP with small molecule CC13; KD ratio against the row rNOSIP + iNOS peptide2
Procedure: as §1, §2

[8] = molecular target: T1, recombinant human iNOS oxygenase domain; test: SPR, NOSIP 1000 nM to 62.5 nM over immobilised iNOS in presence of 250 nM iNOS PP2 (competitor), Kinetic-Langmuir analysis (FIG. 2(b))
Procedure: FIG. 2 depicts inhibition of iNOS-NOSIP protein interaction by iNOS derived peptides. […] These interactions was inhibited in presence of different iNOS peptides (250 nM) viz; PP1—red line, PP2—sky blue line at bottom of graph, PP3—blue line and PP4—green line.
as §3

[9] = molecular target: T1, recombinant human iNOS oxygenase domain; test: SPR, iNOS immobilised, rNOSIP pre-incubated 30 min on ice with iNOS peptide 2 (competitor), 20 C, 1:1 Langmuir fit
Procedure: as §1
(§4) The five small molecules bind with NOSIP and inhibit the association of recombinant NOSIP and recombinant iNOS. […] The molecular interaction was carried out at 20° C. and kinetic parameters were determined, after fitting the association and dissociation curves to a 1:1 (Langmuir)-binding model. […] The response curves were also recorded on control surfaces. Results were calculated after subtraction of the control values using the ProteOn Manager software.

[10] = molecular target: T1, recombinant human iNOS oxygenase domain; test: SPR, iNOS immobilised, rNOSIP with small molecule CC4; KD ratio against the row rNOSIP + iNOS peptide2
Procedure: as §1, §2

[11] = molecular target: T1, recombinant human iNOS oxygenase domain; test: SPR, iNOS immobilised, rNOSIP with iNOS peptide 2; this row is the reference of the fold change
[12] = molecular target: T1, recombinant human iNOS oxygenase domain; test: SPR, iNOS immobilised, rNOSIP pre-incubated 30 min on ice with small molecule CC13 (inhibitor), 20 C, 1:1 Langmuir fit
Procedure: as §1, §2

[13] = molecular target: T1, recombinant human iNOS oxygenase domain; test: SPR, iNOS immobilised, rNOSIP pre-incubated 30 min on ice with small molecule CC5 (inhibitor), 20 C, 1:1 Langmuir fit
Procedure: as §1, §2

[14] = molecular target: T1, recombinant human iNOS oxygenase domain; test: SPR, iNOS immobilised, rNOSIP with small molecule CC5; KD ratio against the row rNOSIP + iNOS peptide2
Procedure: as §1, §2

[15] = molecular target: T1, recombinant human iNOS oxygenase domain; test: SPR, iNOS immobilised, rNOSIP pre-incubated 30 min on ice with small molecule CC4 (inhibitor), 20 C, 1:1 Langmuir fit
Procedure: as §1, §4

[16] = molecular target: B1; test: ITC, 10 µM iNOS peptide in the chamber, 150 µM rNOSIP in syringe, 25 C
Procedure: (§5) The predictions were tested for validation by […] (SPR). […] The other 3 peptides (Peptide-1, SEQ ID No: 25), (Peptide3, SEQ ID No: 27), and (peptide-4, SEQ ID No: 28) were less efficient in inhibiting interaction between iNOS and NOSIP as shown in FIG. 2(a). […] NOSIP and iNOS peptide (PP2) binding was measured by titrating 10 μM iNOS peptide in the chamber with 150 μM rNOSIP in syringe at 25° C. Top panel, raw heating power over time; Bottom panel, fit of integrated injection enthalpy over the mole ratio of the reactants.

[17] = molecular target: B1; test: ITC; this row is the reference of the fold change in Table 1
Procedure: (§6) The 18 mer iNOS peptide (PP2) and small molecules were used for physical association of molecules in calorimetric analysis. The molecular association leads to thermodynamics changes such as Gibb's free energy change (ΔG), entropy change (ΔS), enthalpy change (ΔH) and number of binding sites (N) in interacting solution were investigated by isothermal calorimetry MICROCAL PEQ (Malvern) at 25° C. The sample cell were filled with peptides, small molecules and the reference cell was filled with 25 mM HEPES and 150 mM Sodium chloride, pH=7 and the syringe was filled with NOSIP solution (200 μM). The experiment consisted of multiple injections and each injection contained 1.5 μl of binding solution (recombinant NOSIP solution) with 120 second spacing time between subsequent injections. Sequential titrations were carried out and the sample solution was continuously stirred at 270 rpm by the rotating paddle attached to the syringe needle. Multiple injections of NOSIP made into the sample cell containing interacting solution of peptide and small molecules. The titration curves were analyzed using the analysis software provided with the calorimeter.
The 18 mer iNOS peptide (PP2) and five small molecules were used to analyze physical association in calorimetric analysis. […] The titration curves were analyzed using the analysis software provided with the calorimeter.

[18] = molecular target: B1; test: ITC (MicroCal PEAQ), peptide in cell, rNOSIP in syringe, 25 C
Procedure: as §6
The 18 mer iNOS peptide (PP2) and five small molecules were used to analyze physical association in calorimetric analysis. The molecular association leads to thermodynamics changes such as Gibb's free energy change (ΔG), entropy change (ΔS), enthalpy change (ΔH) and number of binding sites (N) in interacting solution were investigated by isothermal calorimetry MICROCAL PEQ (Malvern) at 25° C. The sample cell were filled with peptides, small molecules and the reference cell was filled with 25 mM HEPES and 150 mM Sodium chloride, pH=7 and the syringe was filled with NOSIP solution (200 μM). The experiment consisted of multiple injections and each injection contained 1.5 μl of binding solution with 120 second spacing time between subsequent injections. Sequential titrations were carried out and the sample solution was continuously stirred at 270 rpm by the rotating paddle attached to the syringe needle. Multiple injections of NOSIP made into the sample cell containing interacting solution of peptide and small molecules. The titration curves were analyzed using the analysis software provided with the calorimeter.

[19] = molecular target: B1; test: ITC, 10 µM iNOS peptide in the chamber, 150 µM rNOSIP in syringe, 25 C; ITC, 25 C; 10 µM iNOS peptide in chamber, 150 µM rNOSIP in syringe
Procedure: as §5

T1 sequence (P35228 other isoform, or with tags, fused parts or gaps limits assumed): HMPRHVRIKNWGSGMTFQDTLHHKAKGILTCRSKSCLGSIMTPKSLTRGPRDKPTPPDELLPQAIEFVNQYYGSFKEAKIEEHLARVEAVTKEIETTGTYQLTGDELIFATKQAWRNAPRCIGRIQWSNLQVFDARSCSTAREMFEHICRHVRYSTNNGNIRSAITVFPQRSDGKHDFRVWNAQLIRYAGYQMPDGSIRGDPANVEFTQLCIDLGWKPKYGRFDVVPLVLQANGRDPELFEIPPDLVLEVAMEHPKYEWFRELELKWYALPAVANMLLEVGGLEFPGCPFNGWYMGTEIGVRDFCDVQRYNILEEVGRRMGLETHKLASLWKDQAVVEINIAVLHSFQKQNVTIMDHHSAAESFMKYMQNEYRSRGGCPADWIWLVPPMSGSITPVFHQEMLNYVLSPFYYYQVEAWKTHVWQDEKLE

Binder: B1
Fold Change (KD) [1]: 0.00144 | KD (M) in presence of small molecule MCULE-8094061955 (CC11) [2]: 0.000809 M | Fold Change (KD) [3]: 142 | KD (M) in presence of small molecule MCULE-3765839647 (CC6) [4]: 0.000704 M | Kd [5]: 0.00711 µM | koff [5]: 0.000681 s⁻¹ | kon [5]: 95700 M⁻¹ s⁻¹ | Fold Change (KD) [6]: 164 | Fold Change (KD) [7]: 110 | KD in presence of 250 nM iNOS PP2 [8]: 0.495 µM | Ka in presence of 250 nM iNOS PP2 [8]: 5360 | Kd in presence of 250 nM iNOS PP2 [8]: 0.00265 | KD (M) in presence of iNOS peptide2 [9]: 4.94e-06 M | Fold Change (KD) [10]: 176 | Fold Change (KD) [11]: 1 | KD (M) in presence of small molecule MCULE-8395438746 (CC13) [12]: 0.000543 M | KD (M) in presence of small molecule MCULE-8469877005 (CC5) [13]: 0.000588 M | Fold Change (KD) [14]: 119 | KD (M) in presence of small molecule MCULE-4640800528 (CC4) [15]: 0.00087 M

Binder: B2
-TΔS [16]: 0.459 kcal/mol | N [16]: 0.993 | ΔG [16]: -8.61 kcal/mol | ΔH [16]: -9.07 kcal/mol | Fold Change (KD) [17]: 1 | -TΔS [18]: -0.1 kcal/mol | Kd [18]: 0.548 µM | ΔG [18]: -8.54 kcal/mol | ΔH [18]: -8.44 kcal/mol | Kd [19]: 0.493 µM

— patent publication US20240000786A1, “COMPOSITION FOR ENHANCING INTRA-CELLULAR NITRIC OXIDE GENERATION” (INSTITUTE OF LIFE SCIENCES, priority 2020, published 2024)
